Experimental data from publication PMC10179609.
Read-outs that look alike come from different tables or passages of the source.

Tests used:
[1] = viscometry; falling ball micro viscometer, 20 °C, Tpm 1.0 mg/mL (15 µM), 30 mM HEPES-Na pH 7.3, 100 mM NaCl, 4 mM DTT; end-to-end (N- and C-ends) interaction of Tpm dimers; conditions: other: viscometry
[2] = molecular target: F-actin (skeletal rabbit muscle actin) (rabbit) (UniProt P68135)
[3] = molecular target: F-actin (skeletal rabbit muscle actin) (rabbit) (UniProt P68135); assay: co-sedimentation; without TnT1; 10 μM F-actin, Tpm 0 to 7.5 μM, 20 °C, 30 mM HEPES-Na pH 7.3, 200 mM NaCl; 100,000 g 40 min, SDS-PAGE of pellet and supernatant
[4] = molecular target: F-actin (skeletal rabbit muscle actin) (rabbit) (UniProt P68135); assay: light scattering on heating; 20 μM phalloidin-stabilized F-actin, 10.5 μM Tpm, 30 mM HEPES-Na pH 7.3, 100 mM NaCl; 350 nm, heating 1 °C/min; Tdiss is the temperature of a 50% decrease in light scattering
[5] = molecular target: F-actin (skeletal rabbit muscle actin) (rabbit) (UniProt P68135); assay: co-sedimentation; with 1.5 μM TnT1 (fragment of human cardiac troponin T); 10 μM F-actin, Tpm 0 to 7.5 μM, 20 °C, 30 mM HEPES-Na pH 7.3, 255 mM NaCl; 100,000 g 40 min, SDS-PAGE of pellet and supernatant
[6] = molecular target: α-chain of tropomyosin (αTpm, Tpm 1.1), single chain (human); assay: cross-linking; ααTpm, κκTpm or their equimolar mixture heated to 70 °C, cooled, dimers cross-linked at SH groups with DTNB; SDS-PAGE without β-mercaptoethanol
[7] = molecular target: F-actin (skeletal rabbit muscle actin) (rabbit) (UniProt P68135); assay: co-sedimentation; without TnT1; 10 μM F-actin, Tpm 0 to 7.5 μM, 20 °C, 30 mM HEPES-Na pH 7.3, 200 mM NaCl; 100,000 g 40 min, SDS-PAGE of pellet and supernatant; remark: listed apart in the source

Substance	viscosity of the Tpm solution [1] [mPa·s]	reduction of the sliding velocity of F-actin (2.2 µm/s) in the in vitro motility assay [2] [%]	K50% (Tpm concentration at half-saturation of F-actin) [3] [µM]	Tdiss (temperature of 50% dissociation of the complex with F-actin) [4] [°C]	K50% with TnT1 (Tpm concentration at half-saturation of F-actin) [5] [µM]	further results
ααTpm homodimer (alpha-tropomyosin, Tpm 1.1)	0.41 ± 0.04	–	–	–	–	–
ααTpm homodimer (alpha-tropomyosin, Tpm 1.1) (natural protein)	–	50	1.23	45.9	–	–
ακTpm heterodimer (complex)	–	–	–	–	0.71	–
κ-chain of tropomyosin (κTpm, Tpm 1.2), single chain (natural protein)	–	–	–	–	–	share of heterodimers among the dimers formed from an equimolar mixture [6]: < 90%
κκTpm homodimer (kappa-tropomyosin, Tpm 1.2)	0.09 ± 0.01	–	–	–	–	–
κκTpm homodimer (kappa-tropomyosin, Tpm 1.2) (natural protein)	–	30	1.29	42.1	0.88	K50% (Tpm concentration at half-saturation of F-actin) [7]: 2.37 µM
